Results taken from US6328728A, “Composition and method for enhancing electrotransport agent delivery” (Alza Corporation, priority 1997, dated 2001).

Test: Electrophoretic mobility by capillary zone electrophoresis
Format: physicochemical
Conditions: for Electrophoretic Mobility / Electrophoretic Mobility (Average): 32° C.
Experimental: Since electrophoretic mobility (ie, the ability of a drug/agent to migrate in an electric field) is an important aspect of electrotransport drug delivery, the electrophoretic mobility of the drug/agent being delivered is predictive of suitability for transdermal electrotransport delivery. Electrophoretic mobility measurements were performed using a capillary zone electrophoresis instrument (model 2100 P/ACE instrument, Beckman Instruments, Inc., Palo Alto, Calif.). At acid pH values DB-WAX, DB-1, DB-17 (J&W Scientific, Folsom, Calif.) capillary columns were used either with 50 or 100 micron internal diameter column and CElect H75 (Supelco, Bellefonte, Pa.) capillary column with a 75 micron internal diameter. At alkaline pH values uncoated silica capillaries of length 57 cm with an internal diameter of 75 microns were used with an applied voltage of 20 kV. If any electroosmotic flow was present, it was detected using a neutral marker such as 0.01% benzyl alcohol (SIGMA, St. Louis, Mo.) or 1/500 mesityl oxide (Applied Biosystems, Foster City, Calif.). The optimum voltage was determined by doing an Ohm's Law test on each buffer and capillary system. The temperature of the capillary columns was set at 32° C. and a two second pressure injection was done. A UV detector was used to monitor peptide and markers at either 214 or 280 nm.
Voltage injection had to be used for the 27 cm length column. The voltage applied varied depending on the capillary length.
The following equation was used to determine electrophoretic mobility μ. [formula]
If the electroosmotic flow is detected, the following equation can be used.
μpeptide =μtotal -μneutral marker
The measurement procedures described above were conducted on an aqueous solution of the protein insulinotropin, with TWEEN® 20 (MW=1126 g/mol) as the surfactant, with the following modifications. The insulinotropin donor solution concentration was 0.12 mg/mL. One test was run in 10 mM sodium borate at pH 9.0 and another test in 10 mM sodium chloroacetate at pH 3.5.
Fractional changes (%δ) are defined as the difference between the reading at a given surfactant concentration (Ec) minus the reading at zero surfactant (E0), the quantity divided by the difference between the reading at saturated surfactant concentration (Es) minus the reading at zero surfactant (E0), i. e. %δ=(Ec -E0)/(Es-E0).
The measurement procedures described earlier were conducted in this example on an aqueous solution containing insulinotropin as the agent and dodecyl trimethyl ammonium chloride (DTAC) as the ionic surfactant with the following modifications. […]
The same measurement procedures were conducted using an aqueous solution of salmon calcitonin as the agent and the zwitterionic dodecyl sulfobetaine as the surfactant with the following modifications. The temperature was initially 32° C., the surfactant concentration was varied up to 30 mM, and the calcitonin concentration was 0.06 to 0.08 mM. Tables 7, 8, and 9 below provide the results obtained in terms of polypeptide ellipticity expressed as a function of zwitterionic surfactant concentration at pH 3.5 in 12 mM sodium chloroacetate (Table 7), 5.0 in 4 mM piperazine HCI (Table 8), and 6.5 in 15 mM sodium cacodylate (Table 9), respectively. Table 8, in addition, provides the results obtained on electrophoretic mobility and HIC retention time in a phenyl superose column at pH 5.0.

[1] = pH 3.5, 10 mM sodium chloroacetate, TWEEN 20 0
[2] = pH 3.5, 10 mM sodium chloroacetate, TWEEN 20 0.133 mM
[3] = pH 3.5, 10 mM sodium chloroacetate, TWEEN 20 0.266 mM
[4] = pH 3.5, 10 mM sodium chloroacetate, TWEEN 20 0.515 mM
[5] = pH 3.5, 10 mM sodium chloroacetate, TWEEN 20 1.00 mM
[6] = pH 3.5, 10 mM sodium chloroacetate, TWEEN 20 2.28 mM
[7] = pH 3.5, 10 mM sodium chloroacetate, TWEEN 20 4.44 mM
[8] = pH 9.0, 10 mM sodium borate, TWEEN 20 0
[9] = pH 9.0, 10 mM sodium borate, TWEEN 20 0.133 mM
[10] = pH 9.0, 10 mM sodium borate, TWEEN 20 0.266 mM
[11] = pH 9.0, 10 mM sodium borate, TWEEN 20 0.515 mM
[12] = pH 9.0, 10 mM sodium borate, TWEEN 20 1.00 mM
[13] = pH 9.0, 10 mM sodium borate, TWEEN 20 2.28 mM
[14] = pH 9.0, 10 mM sodium borate, TWEEN 20 4.44 mM
[15] = pH 9.0, 10 mM sodium borate, TWEEN 20 8.88 mM
[16] = pH 9.0, 10 mM sodium borate, TWEEN 20 13.3 mM
[17] = pH 9.0, 10 mM sodium borate, TWEEN 20 20.0 mg/mL
[18] = pH 9.0, 10 mM sodium borate, TWEEN 20 25.0 mg/mL

For Salmon Calcitonin [reference compound], the “Electrophoretic Mobility” value (pH 5.0, 4 mM piperazine-HCl, dodecyl sulfobetaine 0, calcitonin 0.076 mM) was 2.4 × 10^-4 cm^2 /V-sec, the “Electrophoretic Mobility” value (pH 5.0, 4 mM piperazine-HCl, dodecyl sulfobetaine 0.83 mM, calcitonin 0.076 mM) was 2.3 × 10^-4 cm^2 /V-sec and the “Electrophoretic Mobility” value (pH 5.0, 4 mM piperazine-HCl, dodecyl sulfobetaine 1.64 mM, calcitonin 0.075 mM) was 2.2 × 10^-4 cm^2 /V-sec. For the same substance, the “Electrophoretic Mobility” value (pH 5.0, 4 mM piperazine-HCl, dodecyl sulfobetaine 3.23 mM, calcitonin 0.074 mM) was 2.2 × 10^-4 cm^2 /V-sec, the “Electrophoretic Mobility” value (pH 5.0, 4 mM piperazine-HCl, dodecyl sulfobetaine 6.25 mM, calcitonin 0.072 mM) was 1.7 × 10^-4 cm^2 /V-sec and the “Electrophoretic Mobility” value (pH 5.0, 4 mM piperazine-HCl, dodecyl sulfobetaine 7.69 mM, calcitonin 0.071 mM) was 1.5 × 10^-4 cm^2 /V-sec. For the same substance, the “Electrophoretic Mobility” value (pH 5.0, 4 mM piperazine-HCl, dodecyl sulfobetaine 9.77 mM, calcitonin 0.069 mM) was 1.6 × 10^-4 cm^2 /V-sec, the “Electrophoretic Mobility” value (pH 5.0, 4 mM piperazine-HCl, dodecyl sulfobetaine 12.4 mM, calcitonin 0.067 mM) was 1.4 × 10^-4 cm^2 /V-sec and the “Electrophoretic Mobility” value (pH 5.0, 4 mM piperazine-HCl, dodecyl sulfobetaine 18.4 mM, calcitonin 0.062 mM) was 0.96 × 10^-4 cm^2 /V-sec. For the same substance, the “Electrophoretic Mobility” value (pH 5.0, 4 mM piperazine-HCl, dodecyl sulfobetaine 26.4 mM, calcitonin 0.056 mM) was 0.88 × 10^-4 cm^2 /V-sec.

With “Insulinotropin: the protein insulinotropin” the “Electrophoretic Mobility (Average)” value (pH 3.5, 10 mM sodium chloroacetate, DTAC 0) was 1.80 cm^2 /V-s × 10^-4, the “Electrophoretic Mobility (Average)” value (pH 3.5, 10 mM sodium chloroacetate, DTAC 0.83 mM) was 1.82 cm^2 /V-s × 10^-4 and the “Electrophoretic Mobility (Average)” value (pH 3.5, 10 mM sodium chloroacetate, DTAC 1.64 mM) was 1.81 cm^2 /V-s × 10^-4. For the same substance, the “Electrophoretic Mobility (Average)” value (pH 3.5, 10 mM sodium chloroacetate, DTAC 20.0 mM) was 3.46 cm^2 /V-s × 10^-4, the “Electrophoretic Mobility (Average)” value (pH 3.5, 10 mM sodium chloroacetate, DTAC 25.0 mM) was 3.33 cm^2 /V-s × 10^-4 and the “Electrophoretic Mobility” value [1] was -1.8 cm^2 /Vs ×10^-4. The “Electrophoretic Mobility” value [2] was -1.72 cm^2 /Vs ×10^-4, the “Electrophoretic Mobility” value [3] was -1.58 cm^2 /Vs ×10^-4 and the “Electrophoretic Mobility” value [4] was -1.32 cm^2 /Vs ×10^-4. For the same substance, the “Electrophoretic Mobility” value [5] was -1.14 cm^2 /Vs ×10^-4, the “Electrophoretic Mobility” value [6] was -1.08 cm^2 /Vs ×10^-4 and the “Electrophoretic Mobility” value [7] was -1.01 cm^2 /Vs ×10^-4. For the same substance, the “Electrophoretic Mobility, fractional change (% δ)” value [1] was 0, the “Electrophoretic Mobility, fractional change (% δ)” value [2] was 0.10 and the “Electrophoretic Mobility, fractional change (% δ)” value [3] was 0.28. For the same substance, the “Electrophoretic Mobility, fractional change (% δ)” value [4] was 0.61, the “Electrophoretic Mobility, fractional change (% δ)” value [5] was 0.84 and the “Electrophoretic Mobility, fractional change (% δ)” value [6] was 0.91. The “Electrophoretic Mobility, fractional change (% δ)” value [7] was 1.00, the “Electrophoretic Mobility” value [8] was -1.06 cm^2 Vs × 10^-4 and the “Electrophoretic Mobility” value [9] was -1.05 cm^2 Vs × 10^-4. For the same substance, the “Electrophoretic Mobility” value [10] was -1.01 cm^2 Vs × 10^-4, the “Electrophoretic Mobility” value [11] was -1.00 cm^2 Vs × 10^-4 and the “Electrophoretic Mobility” value [12] was -0.89 cm^2 Vs × 10^-4. The “Electrophoretic Mobility” value [13] was -0.73 cm^2 Vs × 10^-4, the “Electrophoretic Mobility” value [14] was -0.62 cm^2 Vs × 10^-4 and the “Electrophoretic Mobility” value [15] was -0.61 cm^2 Vs × 10^-4. For the same substance, the “Electrophoretic Mobility” value [16] was -0.55 cm^2 Vs × 10^-4, the “Electrophoretic Mobility” value [17] was -0.58 cm^2 Vs × 10^-4 and the “Electrophoretic Mobility” value [18] was -0.53 cm^2 Vs × 10^-4. The “Electrophoretic Mobility, fractional change (% δ)” value [8] was 0, the “Electrophoretic Mobility, fractional change (% δ)” value [9] was 0.02 and the “Electrophoretic Mobility, fractional change (% δ)” value [10] was 0.09. The “Electrophoretic Mobility, fractional change (% δ)” value [11] was 0.11, the “Electrophoretic Mobility, fractional change (% δ)” value [12] was 0.32 and the “Electrophoretic Mobility, fractional change (% δ)” value [13] was 0.62. The “Electrophoretic Mobility, fractional change (% δ)” value [14] was 0.83, the “Electrophoretic Mobility, fractional change (% δ)” value [15] was 0.85 and the “Electrophoretic Mobility, fractional change (% δ)” value [16] was 0.96. For the same substance, the “Electrophoretic Mobility, fractional change (% δ)” value [17] was 0.91 and the “Electrophoretic Mobility, fractional change (% δ)” value [18] was 1.00.
